Assay results reported in paper PMC5070160, “Efficient biosynthesis of ethyl (R)-4-chloro-3-hydroxybutyrate using a stereoselective carbonyl reductase from Burkholderia gladioli” (BMC Biotechnology, 2016).

Columns and labels:
purified protein [1] = substrate: NC(=O)C1=CN([C@@H]2O[C@H](COP(=O)(O)OP(=O)(O)OC[C@H]3O[C@@H](n4cnc5c(N)ncnc54)[C@H](O)[C@@H]3O)[C@@H](O)[C@H]2O)C=CC1; assay: purified protein; type: biochemical, Burkholderia gladioli; conditions: apparent, COBE (ethyl 4-chloro-3-oxobutanoate) 50 mM, NADH 0.01-0.5 mM, pH 6.5, 40 °C, varied: cofactor
purified protein [2] = substrate: NC(=O)C1=CN([C@@H]2O[C@H](COP(=O)(O)OP(=O)(O)OC[C@H]3O[C@@H](n4cnc5c(N)ncnc54)[C@H](OP(=O)(O)O)[C@@H]3O)[C@@H](O)[C@H]2O)C=CC1; assay: purified protein; type: biochemical, Burkholderia gladioli; conditions: apparent, COBE (ethyl 4-chloro-3-oxobutanoate) 50 mM, NADPH 0.01-0.5 mM, pH 6.5, 40 °C, varied: cofactor

B1: BgADH3 (Burkholderia gladioli BSR3) (protein)
chain: MSETNSRRDFLRHAAAGTAGVAVAAVPGIAAAADGAPDAMPPLARMRNPHDLYPRAPFARQVQPVPGLASKMVPRPDHGETSYRGSNRLAGRKALVTGGDSGIGRAAAIAFAREGADVAINYLPVEESDAREVVALIRKEGRKCVAIPGDIRTEAFCRQLVERAVAELGGLDVLVSNAGHQQARDDIQDISSEQFEQTMKTNVYAPFWIAKAALPHMPAGSSVILTTSEQAFLPSANLLDYAPTKAANIAFVKALAKQQAPRGIRVNAVAPGATWTPLQTSGGQPPEVIDRFGQDNPTGRPAQPVELAPLYVTLASAESSFSSGQVFGANGATGAA
- Km (purified protein [1]): 58 µM
- Vmax (purified protein [1]): 3.4 µmol/min/mg
- kcat (purified protein [1]): 3.97 s⁻¹
- kcat/Km (purified protein [1]): 68300 M⁻¹ s⁻¹
- Km (purified protein [2]): 81 µM
- Vmax (purified protein [2]): 9.1 µmol/min/mg
- kcat (purified protein [2]): 10.6 s⁻¹
- kcat/Km (purified protein [2]): 131000 M⁻¹ s⁻¹
